The values that follow come from patent publication US20250032588A1 (Eli Lilly, published 2025).

In this experiment the target is T1, human insulin receptor isoform A (human, UniProt P06213-2 28-1370).
T1 construct: whole, on cells; Tested as P1 membrane preparations of the over-expressing cells; also called hIR-A
As to the kind of experiment: competitive radio-ligand binding, [125I]-insulin, membranes of 293EBNA cells over-expressing hIR-A. The procedure:
IC₅₀ values are determined from 4-parameter logistic non-linear regression analysis (XLFit version 4.0, IDBS). If necessary, curve top or bottom parameters are set to 100 or 0, respectively.
Reported values for Kᵢ are shown as geometric mean±the standard error of the mean (SEM), with the number of replicate determinations indicated by “n” (Table 1).

B1: Example 9 fusion protein (SEQ ID NO:23) (Fc fusion)
chain: FVNQHLCGSHLVEALELVCGERGFFYTEETGGGGGGGIVEQCCTSICSLYQLENYCGGGGGSGGGGSGGGGSGGGGSECPPCPAPPVAGPSVFLFPPKPKDTLMISRTPEVTCVVVDVSHEDPEVQFNWYVDGVEVHNAKTKPREEQFNSTFRVVSVLTVVHQDWLNGKEYKCKVSNKGLPAPIEKTISKTKGQPREPQVYTLPPSREEMTKNQVSLTCLVKGFYPSDIAVEWESNGQPENNYKTTPPMLDSDGSFFLYSKLTVDKSRWQQGNVFSCSVMHEALHNHYTQKSLSLSPG
In the case of B1, affinity was put at a Ki of 3.74 nM. This lies in the single-digit nanomolar range.

B2: Example 3 fusion protein (SEQ ID NO:17) (Fc fusion)
chain: FVNQHLCGSHLVEALELVCGERGFHYGGGGGGSGGGGGIVEQCCTSICSLDQLENYCGGGGGQGGGGQGGGGQGGGGQGGPCPPCPAPEAAGGPSVFLFPPKPKDTLMISRTPEVTCVVVDVSQEDPEVQFNWYVDGVEVHNAKTKPREEQFNSTYRVVSVLTVLHQDWLNGKEYKCKVSNKGLPSSIEKTISKAKGQPREPQVYTLPPSQEEMTKNQVSLTCLVKGFYPSDIAVEWESNGQPENNYKTTPPVLDSDGSFFLYSRLTVDKSRWQEGNVFSCSVMHEALHNHYTQKSLSLSLG
B2: the inhibitory constant (Ki) came to 10.1 nM.

B3: Example 5 fusion protein (SEQ ID NO:19) (Fc fusion)
chain: FVNQHLCGSHLVEALELVCGERGFHYGGGGGGSGGGGGIVEQCCTSTCSLDQLENYCGGGGGQGGGGQGGGGQGGGGQGGPCPPCPAPEAAGGPSVFLFPPKPKDTLMISRTPEVTCVVVDVSQEDPEVQFNWYVDGVEVHNAKTKPREEQFNSTYRVVSVLTVLHQDWLNGKEYKCKVSNKGLPSSIEKTISKAKGQPREPQVYTLPPSQEEMTKNQVSLTCLVKGFYPSDIAVEWESNGQPENNYKTTPPVLDSDGSFFLYSRLTVDKSRWQEGNVFSCSVMHEALHNHYTQKSLSLSLG
Molecule B3 registered a Ki of 35.6 nM.

B4: Example 1 fusion protein (SEQ ID NO:12) (Fc fusion)
chain: FVNQHLCGSHLVEALELVCGERGFHYGGGGGGSGGGGGIVEQCCTSTCSLDQLENYCGGGGGQGGGGQGGGGQGGGGGECPPCPAPPVAGPSVFLFPPKPKDTLMISRTPEVTCVVVDVSHEDPEVQFNWYVDGVEVHNAKTKPREEQFNSTFRVVSVLTVVHQDWLNGKEYKCKVSNKGLPAPIEKTISKTKGQPREPQVYTLPPSREEMTKNQVSLTCLVKGFYPSDIAVEWESNGQPENNYKTTPPMLDSDGSFFLYSKLTVDKSRWQQGNVFSCSVMHEALHNHYTQKSLSLSPG
Consider B4, for which the affinity corresponds to a Ki of 24.9 nM.
